Reference: patent US20250215412A1 (NOVOZYMES A S, published 2025)
“And” between values parts separate entries of the source, which are not always exact repeats. Equal entries are not always repeated.

T1: Chryseobacterium sp-62563 deamidase polypeptide (second polypeptide, deamidase domain), wildtype (Chryseobacterium sp-62563)
T1 sequence: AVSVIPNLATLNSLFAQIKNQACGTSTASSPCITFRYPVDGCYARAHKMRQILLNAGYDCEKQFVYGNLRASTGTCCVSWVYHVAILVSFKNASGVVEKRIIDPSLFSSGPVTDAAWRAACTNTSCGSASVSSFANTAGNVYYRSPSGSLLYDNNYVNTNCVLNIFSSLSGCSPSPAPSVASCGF


What follows are molecules tested against T1, Chryseobacterium sp-62563 deamidase polypeptide (second polypeptide, deamidase domain), wildtype (Chryseobacterium sp-62563) (assay: cell-based or functional assay).

NanoDSF thermal unfolding temperature	Relative activity of maturated deamidase (% initial rate)	Leakage activity	Molecule
77.5 ° C.	–	–	Chryseobacterium sp-62563 propeptide I92*
79.8 ° C.	> 100	–	Chryseobacterium sp-62563 propeptide F95FA
81.6 ° C.	99	–	Chryseobacterium sp-62563 propeptide S97ST
–	30	–	Chryseobacterium sp-62563 propeptide S97SI
80.3 ° C.	> 100	–	Chryseobacterium sp-62563 propeptide D90DA
79.5 ° C.	> 100	–	Chryseobacterium sp-62563 propeptide K96*
81.4 ° C.	> 100	–	Chryseobacterium sp-62563 propeptide S97SK
81.1 ° C.	> 100	–	Chryseobacterium sp-62563 propeptide S97SS
81.7 ° C.	98	–	Chryseobacterium sp-62563 propeptide T100*
77.1 ° C.	> 100	–	Chryseobacterium sp-62563 propeptide F95*
–	41	–	Chryseobacterium sp-62563 propeptide T100TA
–	50	–	Chryseobacterium sp-62563 propeptide S97SF
69.2 ° C.	–	–	Chryseobacterium sp-62563 propeptide P44PA
78.7 ° C.	–	–	Chryseobacterium sp-62563 propeptide V98*
82 ° C.	68	–	Chryseobacterium sp-62563 propeptide S97SY
–	76	1%	Chryseobacterium sp-62563 propeptide V25H (protein) NQDPNLVAKESNETAMKDFGKTVPHGIEKEDGKFKISFMVTAQPYEIKDSKENAAYISMIKTAVENETPIHVFLKANTNEIAKVDKATDDDIRYFKSVFTKEVKEENRK
–	40	0%	Chryseobacterium sp-62563 propeptide Y45A (protein) NQDPNLVAKESNETAMKDFGKTVPVGIEKEDGKFKISFMVTAQPAEIKDSKENAAYISMIKTAVENETPIHVFLKANTNEIAKVDKATDDDIRYFKSVFTKEVKEENRK
–	66	0%	Chryseobacterium sp-62563 propeptide K33E (protein) NQDPNLVAKESNETAMKDFGKTVPVGIEKEDGEFKISFMVTAQPYEIKDSKENAAYISMIKTAVENETPIHVFLKANTNEIAKVDKATDDDIRYFKSVFTKEVKEENRK
–	73	2%	Chryseobacterium sp-62563 propeptide Y45N (protein) NQDPNLVAKESNETAMKDFGKTVPVGIEKEDGKFKISFMVTAQPNEIKDSKENAAYISMIKTAVENETPIHVFLKANTNEIAKVDKATDDDIRYFKSVFTKEVKEENRK
–	> 100	0%	Chryseobacterium sp-62563 propeptide A42K (protein) NQDPNLVAKESNETAMKDFGKTVPVGIEKEDGKFKISFMVTKQPYEIKDSKENAAYISMIKTAVENETPIHVFLKANTNEIAKVDKATDDDIRYFKSVFTKEVKEENRK

NanoDSF thermal unfolding temperature	Relative activity of maturated deamidase (% initial rate)	Leakage activity	Molecule
–	> 100	0%	Chryseobacterium sp-62563 propeptide Y45S (protein) NQDPNLVAKESNETAMKDFGKTVPVGIEKEDGKFKISFMVTAQPSEIKDSKENAAYISMIKTAVENETPIHVFLKANTNEIAKVDKATDDDIRYFKSVFTKEVKEENRK
–	64	3%	Chryseobacterium sp-62563 propeptide Q43K (protein) NQDPNLVAKESNETAMKDFGKTVPVGIEKEDGKFKISFMVTAKPYEIKDSKENAAYISMIKTAVENETPIHVFLKANTNEIAKVDKATDDDIRYFKSVFTKEVKEENRK
–	> 100	0%	Chryseobacterium sp-62563 propeptide Q43D (protein) NQDPNLVAKESNETAMKDFGKTVPVGIEKEDGKFKISFMVTADPYEIKDSKENAAYISMIKTAVENETPIHVFLKANTNEIAKVDKATDDDIRYFKSVFTKEVKEENRK
–	–	0%	Chryseobacterium sp-62563 propeptide Q43V (protein) NQDPNLVAKESNETAMKDFGKTVPVGIEKEDGKFKISFMVTAVPYEIKDSKENAAYISMIKTAVENETPIHVFLKANTNEIAKVDKATDDDIRYFKSVFTKEVKEENRK
–	–	0%	Chryseobacterium sp-62563 propeptide T41D (protein) NQDPNLVAKESNETAMKDFGKTVPVGIEKEDGKFKISFMVDAQPYEIKDSKENAAYISMIKTAVENETPIHVFLKANTNEIAKVDKATDDDIRYFKSVFTKEVKEENRK
–	59	0%	Chryseobacterium sp-62563 propeptide Q43R (protein) NQDPNLVAKESNETAMKDFGKTVPVGIEKEDGKFKISFMVTARPYEIKDSKENAAYISMIKTAVENETPIHVFLKANTNEIAKVDKATDDDIRYFKSVFTKEVKEENRK
–	39	0%	Chryseobacterium sp-62563 propeptide V40P (protein) NQDPNLVAKESNETAMKDFGKTVPVGIEKEDGKFKISFMPTAQPYEIKDSKENAAYISMIKTAVENETPIHVFLKANTNEIAKVDKATDDDIRYFKSVFTKEVKEENRK
–	–	0%	Chryseobacterium sp-62563 propeptide Q43H (protein) NQDPNLVAKESNETAMKDFGKTVPVGIEKEDGKFKISFMVTAHPYEIKDSKENAAYISMIKTAVENETPIHVFLKANTNEIAKVDKATDDDIRYFKSVFTKEVKEENRK
–	48	0%	Chryseobacterium sp-62563 propeptide Y45K (protein) NQDPNLVAKESNETAMKDFGKTVPVGIEKEDGKFKISFMVTAQPKEIKDSKENAAYISMIKTAVENETPIHVFLKANTNEIAKVDKATDDDIRYFKSVFTKEVKEENRK
–	88	6%	Chryseobacterium sp-62563 propeptide Y45Q (protein) NQDPNLVAKESNETAMKDFGKTVPVGIEKEDGKFKISFMVTAQPQEIKDSKENAAYISMIKTAVENETPIHVFLKANTNEIAKVDKATDDDIRYFKSVFTKEVKEENRK
–	72	2%	Chryseobacterium sp-62563 propeptide F38A (protein) NQDPNLVAKESNETAMKDFGKTVPVGIEKEDGKFKISAMVTAQPYEIKDSKENAAYISMIKTAVENETPIHVFLKANTNEIAKVDKATDDDIRYFKSVFTKEVKEENRK
–	> 100	0%	Chryseobacterium sp-62563 propeptide K35E (protein) NQDPNLVAKESNETAMKDFGKTVPVGIEKEDGKFEISFMVTAQPYEIKDSKENAAYISMIKTAVENETPIHVFLKANTNEIAKVDKATDDDIRYFKSVFTKEVKEENRK
–	–	0%	Chryseobacterium sp-62563 propeptide D49P (protein) NQDPNLVAKESNETAMKDFGKTVPVGIEKEDGKFKISFMVTAQPYEIKPSKENAAYISMIKTAVENETPIHVFLKANTNEIAKVDKATDDDIRYFKSVFTKEVKEENRK
69.8 ° C.	94	10% and 7%	Chryseobacterium sp-62563 propeptide V23S (protein) NQDPNLVAKESNETAMKDFGKTSPVGIEKEDGKFKISFMVTAQPYEIKDSKENAAYISMIKTAVENETPIHVFLKANTNEIAKVDKATDDDIRYFKSVFTKEVKEENRK
73.7 ° C.	> 100	2%	Chryseobacterium sp-62563 propeptide Y45T (protein) NQDPNLVAKESNETAMKDFGKTVPVGIEKEDGKFKISFMVTAQPTEIKDSKENAAYISMIKTAVENETPIHVFLKANTNEIAKVDKATDDDIRYFKSVFTKEVKEENRK
65.2 ° C.	> 100	2%	Chryseobacterium sp-62563 propeptide Y45G (protein) NQDPNLVAKESNETAMKDFGKTVPVGIEKEDGKFKISFMVTAQPGEIKDSKENAAYISMIKTAVENETPIHVFLKANTNEIAKVDKATDDDIRYFKSVFTKEVKEENRK
–	93	2%	Chryseobacterium sp-62563 propeptide F38T (protein) NQDPNLVAKESNETAMKDFGKTVPVGIEKEDGKFKISTMVTAQPYEIKDSKENAAYISMIKTAVENETPIHVFLKANTNEIAKVDKATDDDIRYFKSVFTKEVKEENRK
–	67	0%	Chryseobacterium sp-62563 propeptide T41E (protein) NQDPNLVAKESNETAMKDFGKTVPVGIEKEDGKFKISFMVEAQPYEIKDSKENAAYISMIKTAVENETPIHVFLKANTNEIAKVDKATDDDIRYFKSVFTKEVKEENRK
76.2 ° C.	83	26%	Chryseobacterium sp-62563 propeptide F38C (protein) NQDPNLVAKESNETAMKDFGKTVPVGIEKEDGKFKISCMVTAQPYEIKDSKENAAYISMIKTAVENETPIHVFLKANTNEIAKVDKATDDDIRYFKSVFTKEVKEENRK
